From paper PMC2972214 (2010)

Columns and labels:
Assay in all cases: SPR
[1] = target: recombinant α-enolase of Streptococcus oralis SV11 (IPM …) (Streptococcus oralis, UniProt A0A1X1IR15 1-434)
[2] = target: recombinant α-enolase of Streptococcus salivarius SV41 (IPM …) (Streptococcus salivarius, UniProt J7THK5 1-434)
[3] = target: recombinant α-enolase of Streptococcus salivarius SV17 (IPM FYENG—VY) (Streptococcus salivarius, UniProt J7THK5 1-434)
[4] = target: recombinant α-enolase of oral streptococcal strain SV90

B1: human plasminogen (natural protein)
chain: EPLDDYVNTQGASLFSVTKKQLGAGSIEECAAKCEEDEEFTCRAFQYHSKEQQCVIMAENRKSSIIIRMRDVVLFEKKVYLSECKTGNGKNYRGTMSKTKNGITCQKWSSTSPHRPRFSPATHPSEGLEENYCRNPDNDPQGPWCYTTDPEKRYDYCDILECEEECMHCSGENYDGKISKTMSGLECQAWDSQSPHAHGYIPSKFPNKNLKKNYCRNPDRELRPWCFTTDPNKRWELCDIPRCTTPPPSSGPTYQCLKGTGENYRGNVAVTVSGHTCQHWSAQTPHTHNRTPENFPCKNLDENYCRNPDGKRAPWCHTTNSQVRWEYCKIPSCDSSPVSTEQLAPTAPPELTPVVQDCYHGDGQSYRGTSSTTTTGKKCQSWSSMTPHRHQKTPENYPNAGLTMNYCRNPDADKGPWCFTTDPSVRWEYCNLKKCSGTEASVVAPPPVVLLPDVETPSEEDCMFGNGKGYRGKRATTVTGTPCQDWAAQEPHRHSIFTPETNPRAGLEKNYCRNPDGDVGGPWCYTTNPRKLYDYCDVPQCAAPSFDCGKPQVEPKKCPGRVVGGCVAHPHSWPWQVSLRTRFGMHFCGGTLISPEWVLTAAHCLEKSPRPSSYKVILGAHQEVNLEPHVQEIEVSRLFLEPTRKDIALLKLSSPAVITDKVIPACLPSPNYVVADRTECFITGWGETQGTFGAGLLKEAQLPVIENKVCNRYEFLNGRVQSTELCAGHLAGGTDSCQGDSGGPLVCFEKDKYILQGVTSWGLGCARPNKPGVYVRVSRFVTWIEGVMRNN
Kd [1]: 1600 nM | Kd [2]: 300 nM | Kd [3]: 500 nM | Kd [4]: 300 nM
